{"source": "patent US20260275317A1", "about": "“CHIMERIC ENDOLYSINS WITH ACTIVITY AGAINST STREPTOCOCCI AND STAPHYLOCOCCI” (UNIVERSITEIT GENT, priority 2023, published 2026)", "molecules": {"B1": {"name": "NC5: chimeric endolysin SEQ ID NO: 17; HIV-1 TAT + PlySs2 CHAP + Ply1081 CW_7 + PlySs9 amidase_3 (protein)", "chain": "MYGRKKRRQRRRGATTVNEALNNVRAQVGSGVSVGNGECYALASWYERMISPDATVGLGAGVGWVSGAIGDTISAKNIGSSYNWQANGWTVSTSGPFKAGQIVTLGATPGNPYGHVVIVEAVDGDRLTILEQNYGGKRYPVRNYYSAASYRQQVVHYITPPGTVAQSAPNLAGAGIDQLVQETLAGKYGNGEQRKAALGSQYQAVMAVINGKATAPKKTVDQLAQEVIQGKHGNGEDRKKSLGPDYDAVQKRVTEILKGSPSGNIPKTPSDAPKSEVVNSSTEPKTEETGANGKATDTKITKGSGKHLVICGHGQGRTGYDPGAVNAKLGITEAGKVRELSKLMSKYSGQQIDFITEQNVYDYRSITSIGKGYDSITELHFNAFNGSAKGTEVLIQSSLEADKEDMAILSLLSRYFQNRGIKKVDWLYNANQAASRGYTYRLVEIAFIDNEQDMAIFENKKEDIAKGLVSAITGVEVKTIVPSPPSSTVGSSGTPSKSIYLVGDSLRVLPHATHYQTGQKIANWVKGRTYKILQVKNVHQSNSKRAYLLDGIKSWVLEQDVEGTTKGHSKYHHHHHH"}}, "key": {"[1]": {"tested_on": "stationary phase S. uberis", "assay": "Time killing assay (TKA), S. uberis", "assay_type": "cell-based, Streptococcus uberis", "conditions": "for ΔLog10 (CFU/mL): 1 h", "procedure": "(§1) Concerning the time killing assay, an overnight bacterial culture was diluted 1:10 for S. uberis, S. agalactiae-& dysgalactiae or 1:100 for S. aureus in PBS or UHT-pasteurized whole cow's milk. […] Finally, these fractions were serially diluted 1:10 in PBS. 5 μL of each fraction was spotted on TSA or BHI-agar and incubated overnight at 37° C. The following day, colony forming units (CFU) were counted and converted to CFU/mL to calculate logarithmic reductions in comparison with the negative control. The relative scores were calculated by dividing the observed logarithmic reduction for each endolysin by the maximal reduction observed for that specific condition and strain. Next, this value was divided by the number of conditions and strains tested (i.e., 8=4 bacterial strains×2 conditions (PBS/UHT-milk)). As such, the best performing candidate in each individual assay received a score of 0.125 (=(1/1)/8). […] Turbidity reduction assays were performed by combining 100 μL of overnight grown bacterial cells with an equal volume of purified enzyme at the desired concentration. Bacterial cells were washed with PBS and resuspended in a 1:1 ratio with enzyme to an OD600 of approximately 1.0. Next, the OD600 was measured using a Tecan infinite 200 PRO plate reader (Tecan, Switzerland) every 15 seconds at 37° C., shaking the 96-well plate between each measurement.\n(§2) Time killing and turbidity reduction assays were performed as previously described in 1.3.1.\n(§3) Time killing assays were performed as previously described in 1.3.1."}, "S. dysgalactiae": {"tested_on": "S. dysgalactiae", "assay": "Time killing assay (TKA), S. dysgalactiae", "assay_type": "cell-based, Streptococcus dysgalactiae", "conditions": "0.3 μM", "procedure": "as §1, §2, §3"}, "[2]": {"tested_on": "intracellular S. uberis GCC ST-5 in MAC-T and PS cells", "assay": "Intracellular killing assay in bovine mammary epithelial cell lines", "assay_type": "cell-based, Streptococcus uberis", "conditions": "2.5 μM, 1 h", "procedure": "Cells were seeded in a 24-well plate at 50.000 cells/well with the addition of 25 μg/mL calf skin collagen type I (dissolved in 0.1 M acetic acid) (Sigma-Aldrich, USA) and grown to 100% confluency. Next, medium was removed and cells were washed 3× with dPBS to remove residual P/S. An overnight bacterial culture was washed with dPBS, dissolved in an equal volume of prewarmed cell culture media without the addition of P/S and 0.5 mL thereof was incubated with the cells in every well during 3 h at 37° C. to allow intracellular invasion. Afterwards, this suspension was removed, serially diluted and plated as previously described to determine the amount of extracellular bacteria. Cells were again washed 3× with dPBS and 0.5 mL of prewarmed cell culture media was added with the addition of 200 μg/ml gentamycin (Sigma-Aldrich, USA) and incubated during 3 h at 37° C. to kill remaining extracellular and adhered bacteria. Next, this suspension was likewise removed and plated to check if killing of the extracellular and adhered bacteria was successful. Cells were again 3× washed with dPBS and 2.5 µM of prewarmed NC5 in cell culture media without P/S (buffer exchange performed at 4-8° C. by means of a Pierce™ Protein Concentrator PES 10 kDa MWCO) was added during 1 h to eradicate the intracellular bacteria. […]"}, "[3]": {"tested_on": "S. uberis in mastitic raw cow's milk", "assay": "Challenge of mastitic raw cow's milk", "assay_type": "cell-based, Streptococcus uberis", "conditions": "milk of 4 cows, 8 h; 0.5 μM NC5, 50 μg/mL cloxacillin or both", "procedure": "Raw cow's milk from S. uberis infected dairy cows was supplied by the milk control center of Flanders (MCC Vlaanderen). Upon arrival, the milk was serially diluted and plated on BHI agar to determine the bacterial load. Only milk with >10^5 […] CFU/mL S. uberis was included as a selection criterium. If needed, the raw milk was incubated during 8 h at 37° C. to artificially increase the initial bacterial load. […] Upon incubation at 37° C., every 2 h, 20 μL was transferred from each well to 180 μL dPBS, serially diluted and plated on BHI agar. Plates were incubated overnight and CFU/mL were calculated the next day. Undiluted, mastitic milk was always pipetted with ClipTip Pipette Tips (Westburg, The Netherlands) due to high viscosity. Mastitis isolates were confirmed as S. uberis by MALDI-TOF MS biotyping."}}, "note": "Values joined by “and” are separate entries in the source; they are usually repeats but may differ in a detail not shown here. Identical values can stand only once.", "data": [{"molecule": "B1", "values": [{"measurement": "ΔLog10 (CFU/mL)", "setting": "[1]; Clinical S. uberis 1 (Unknown ST and GCC), 0.3 μM", "result": "0.03 Log10 (CFU/mL)"}, {"measurement": "ΔLog10 (CFU/mL)", "setting": "[1]; Clinical S. uberis 2 (Unknown ST, GCC 5), 0.3 μM", "result": "4.05±0.07 Log10 (CFU/mL) and 4.05 Log10 (CFU/mL)"}, {"measurement": "ΔLog10 (CFU/mL)", "setting": "[1]; Clinical S. uberis 3 (Unknown ST, GCC 5), 0.3 μM", "result": "1.82 Log10 (CFU/mL)"}, {"measurement": "ΔLog10 (CFU/mL)", "setting": "[1]; Clinical S. uberis 4 (ST 815, GCC 143), 0.3 μM", "result": "0.00 Log10 (CFU/mL)"}, {"measurement": "ΔLog10 (CFU/mL)", "setting": "[1]; Clinical S. uberis 5 (ST 944, GCC 5), 0.3 μM", "result": "0.71 Log10 (CFU/mL)"}, {"measurement": "Δ log10", "setting": "[1]; S. uberis 0140J, 0.3 μM", "result": "1.16±0.06", "unit": "log10"}, {"measurement": "ΔLog10 (CFU/mL)", "setting": "[1]; Subclinical S. uberis 1 (ST 808, GCC 143), 0.3 μM", "result": "3.02±0.37 Log10 (CFU/mL) and 3.02 Log10 (CFU/mL)"}, {"measurement": "ΔLog10 (CFU/mL)", "setting": "[1]; Subclinical S. uberis 2 (Unknown ST and GCC), 0.3 μM", "result": "1.13 Log10 (CFU/mL)"}, {"measurement": "ΔLog10 (CFU/mL)", "setting": "[1]; Subclinical S. uberis 3 (Unknown ST, GCC 5), 0.3 μM", "result": "1.24 Log10 (CFU/mL)"}, {"measurement": "ΔLog10 (CFU/mL)", "setting": "[1]; Subclinical S. uberis 4 (Unknown ST and GCC), 0.3 μM", "result": "2.48 Log10 (CFU/mL)"}, {"measurement": "log10 reduction", "setting": "[1]; mastitis-derived S. uberis GCC ST-5, 0.3 μM, versus PBS", "result": "1.17±0.06", "unit": "log10"}, {"measurement": "ΔLog10 (CFU/mL)", "setting": "S. dysgalactiae; S. dysgalactiae 1, 1 h", "result": "1.77 Log10 (CFU/mL)"}, {"measurement": "ΔLog10 (CFU/mL)", "setting": "S. dysgalactiae; S. dysgalactiae 2, 1 h", "result": "0.15 Log10 (CFU/mL)"}, {"measurement": "ΔLog10 (CFU/mL)", "setting": "S. dysgalactiae; S. dysgalactiae 3, 1 h", "result": "1.11 Log10 (CFU/mL)"}, {"measurement": "log10 reduction", "setting": "S. dysgalactiae; mastitis-derived S. dysgalactiae, versus PBS", "result": "1.11±0.17", "unit": "log10"}, {"measurement": "Δ log10, reductions up to", "setting": "S. dysgalactiae; three clinical S. dysgalactiae isolates", "result": "≤ 1.77±0.43", "unit": "log10"}, {"measurement": "Δ Log10 reduction of intracellular S. uberis", "setting": "[2]; infected MAC-T", "result": "1.62±0.05", "unit": "Log10"}, {"measurement": "Δ Log10 reduction of intracellular S. uberis", "setting": "[2]; infected PS, remaining bacteria at or below detection limit 200 CFU/mL", "result": "at least 2.12±0.08 Log10"}, {"measurement": "log10 reduction of S. uberis versus PBS control", "setting": "[3]", "result": "caused a log10 reduction in all mastitic milk samples after 8 h"}]}]}
